In article PMC10720262 (Cell Reports, 2023):

B1: CL-512508 (antibody, V domains shown)
VH: QVQLVESGGGVVQPGTSLRLSCGASGFTFSSYGMHWVRQAPGKGLEWVAIIWYDGNNKYYADSVKGRFTISRDNSKNTLYLQMNSLRAEDTAVYYCAKVGQFSTSSWGAFDIWGQGTMVTVSS
VL: EIVLTQSPGTLPLSPGERATLSCRASQSVSSSQLAWYQQKPGQAPRLLIYGASSRATAIPDRFSGSGSGTDFTLTISRLEPEDFAVYYCQQYSRLWTFGQGTKVEIK
B2: CL-512319 (antibody, V domains shown)
VH: QVQLVESGGGVVQPGRSLRLSCAASGFTFSNFGMHWVRQAPGKGLEWVAVIWYDGSHKFYADSLKGRFTISRDNSKNTLYLQMNNLRAEDTAVYYCARAHPVTTDYDKYGMDVWGQGTTVTVSS
VL: DIQMTQSPSTLSSSVGDRVTITCRASQSISIWLAWIQQKPGKAPKLLIYKASSLESGVPSRFSGSGSGTEFTLTISSLQPDDFATYYCQQFYSYWTFGLGTKVEIK
B3: CL-512564 (antibody, V domains shown)
VH: QVQLVESGGGVVQPGRSLRLSCAASGFTFSNSGMHWVRQAPGKGLEWVAIIWYDGSHKFYADSVKGRFTISRDNSKNTLYLQMNSLRIEDTAMYYCVRSYNWNYPVRGDYKYGMDVWGQGTTVTVSS
VL: DIQMTQSPSTLSASVGDRVTITCRASQSISSWLAWFQQKPGKAPNLLIYMASSLQSGVPSRFSGSGSGTEFTLTISSLQPDDFATYYCQQFNTYWTFGQGTKVEIK
B4: CL-513069 (antibody, V domains shown)
VH: QVQLVESGGGVVQPGKSLRLSCEASGFTFSNYGMHWVRQAPGKGLDWVAIIWHDGGNKFYADSVRGRFTISRDNSKNTLFLQMNSLRAEDSAVYYCARVFDFRDSCYTMDVWGQGTTVTVSS
VL: DIQMTQSPSTLSASVGDRVTITCRASQSISSWLAWYQQKPGKAPKLLIYKASSLESGVPSRFSGSGSGTEFSLTISSLQPDDFATYYCQQYTRYWTFGQGTRVEIQ
B5: CL-513462 (antibody, V domains shown)
VH: QVQLVESGGGVVQPGRSLRVSCAASGFTFSNYGMYWVRQAPGKGLEWVAVIWHDGTNKFYEDSVKGRFTISRDNSKNTLYLQMNSLRAEDTAVYYCARAGYFQGSGSFLDYWGQGTLVTVSS
VL: DIQMTQSPSTLSASVGDRVTITCRASQSISSWLAWYQQKPGKAPKLLIYKASSLESGVPSRFSGSGSGTEFTLTISSLQPDDFATYFCQQYSSYWTFGQGTKVEIK
B6: CL-513274 (antibody, V domains shown)
VH: QVQLVESGGGVVQPGRSLRVSCAASGFTFSNYGMYWVRQAPGKGLEWVALIWHDGSNKFYEDSVKGRFTISRDNSKNTLYLQMNSLRAEDTAVYYCARAGYFQGSGSFLDYWGQGTLVTVSS
VL: DIQMTQSPSTLSASVGDRVTITCRASQSISTWLAWYQQKPGKAPKLLIYKASSLESGVPSRFSGSGSGTEFTLTISSLQPDDFATYFCQQYSSYWTFGQGTKVEIK
B7: CL-513780 (antibody, V domains shown)
VH: QVQLVESGGGVVQPGRSLRLSCTASGFIFSNYGMYWVRQAPGKGLDWVALIWYDGSNKYYVGSVKGRFTISRDNSKNTLYLQMNSLRAEDTAVYYCARAGKYSGSGSYLDSWGQGTLVTVSS
VL: DIQMTPSPSILSASVGDRVTITCRASQNISSWLAWYQQKPGKAPKLLIYKASSLESGVPSRFSGSGSGTEFTLTISSLQPDDFATYFCQQYYSYWTFGQGTKVEIK
B8: CL-513279 (antibody, V domains shown)
VH: QVQLVESGGGVVQPGRSLRLSCAASGFTFSNFGMHWVRQAPVKGLEWVALIWYDGSNKFYADSVQGRFTISRDNSKNILYLQMNSLRAEDTAVYYCAKVEARGVDYHSYGMDVWGQGTTVTVSS
VL: DIQMTQSPSTLSASVGDRVTITCRASQSISSWLAWYQQKPGKAPQLLIYKASSLESGVPSRFSGSGSGTEFTLTISSLQPDDFATYYCQQYKYYWTFGQGTKVEIK
B9: CL-512761 (antibody, V domains shown)
VH: QVQLVESGGGVVQPGTSLRLSCAASGFTFSNYGMHWVRQAPGKGLEWVSITWYDESNKFYADSVKGRFTISRDNSKNTLYLQMNSLRAEDTAVYYCARAYDTLTGYRAQKYGMDVWGQGTTVTVSS
VL: DIQMTQSPSTLSASVGDRVTITCRASQRISTWLAWYQQKPGKAPKLLINEASRLESGVPSRFSGSGSGTEFTLTISSLQPDDFATYYCQQYNSYWTFGQGTKVEIK
B10: CL-512871 (antibody, V domains shown)
VH: QVLLVESGGGVVQPGRSLRLSCAASGFTFSNYGMHWVRQAPGKGLEWVALIRYDGINKFYADSVKGRFTISRDNSENTLYMQINSLRAEDTAMYYCAKAYNTSSDYYYGMDVWGQGTTVTVSS
VL: DIQMTQSPSTLSASVGDRVTITCRASQSISTWLAWYQQKPGKAPKLLIYKASRLESGVPSRFSGSGSGTEFTLTISSLQPDDLATYYCQQFNSYWTFGQGTKVEIR
B11: CL-513617 (antibody, V domains shown)
VH: QVQLVESGGGVVQPGRSLRLSCAASGFIFSNYGMYWVRQTPDKGLEWVALIWYDGGNKFYSDSVKGRFTVSRDNSKNTLYLQMNSLRDEDTALYYCARAGYFYGSGSSLDKWGQGTLVTVSS
VL: DIQMTQSPSTLSASVGDRVSITCRASQSISIWLAWYQQKPGKAPKLLIYKASSLESGVPSRFSGSGSGTEFSLTISSLQPDDFATYYCQQYNRYWTFGQGTKVEIK
B12: CL-512870 (antibody, V domains shown)
VH: QVQLVESGGGVVQPGRSLRLSCEASGFTFSHYGMHWVRQAPGRGLEWVAIIWYDGSNTYYRDSVKGRFTISRDNSKDTLFLQMNSLRPDDTAVYYCARALYYDSGSLFDFWGQGTLVTVSS
VL: DIQMTQSPSTLSASVGDRVTITCRASQSISSWLAWYQQKPGKAPKLLIYKASSLETGVPSRFSGSGFGTEFTLSISSLQPDDFATYYCLQYNIYWTFGQGTKVEIK
B13: CL-513083 (antibody, V domains shown)
VH: QVQLVESGGGVVQPGRSLRLSCAASGFTFSNYGMHWVRQAPGRGLEWVAIIWYDGSNKYYEDSVKGRFTISRDNSKNTLYLQMNSLRAEDTAVYYCARAQWLDQRHYHYTMDVWGQGTTVTVSS
VL: not shown
B14: CL-512469 (antibody, V domains shown)
VH: QMQLVESGGGVVQPGRSLTLSCEASGFTFSNYGMHWVRQAPGKGLEWVAIIWFDGSHRFYADAVEGRFTISRDNSKNTLFLQMTSLRAEDAAVYYCARVGQFSSSSWGAFDIWGQGTVVTVSS
VL: EIVLTQSPGTLSLSPGESVTLSCRASQIISNTHLAWYQQKPGQAPSLLIYGASSRATGIPDRFSGSGSGTDFTLTISRLEPEDFAVYYCQQYGRLWTFGQGTKVEIK
B15: CL-512374 (antibody, V domains shown)
VH: QVQLVESGGGVVQPGRSLRLSCAASGFTFSSYGMHWVRQAPGKGLEWVAVIWYDGSNKYYADSVKGRFTISRDNSKNTLYLQMNSLRAEDTAVYYCARDGGGTTRSFDLWGRGTLVTVSS
VL: QSVLTQPPSVSGAPGQRVTISCTGSSSNIGAGYDVHWYQQLPGTAPKLLIYGNSNRPSGVPDRFSGSKSGTSASLAITGLQAEDEADYYCQSYDSSLSGSMFGGGTKLTVL
B16: CL-513094 (antibody, V domains shown)
VH: QVQLVESGGGVVQPGRSLRLSCAASGFTFSGSGMHWVRQAPGRGLEWVAIIWYDGSHKYYVDSVQGRFIISRDNSKNTLYLEMNNLRVEDTAVYYCVRAYPSGSSNDKYGMDVWGQGTTVTVSS
VL: not shown
B17: CL-512459 (antibody, V domains shown)
VH: QVQLVESGGGVVQPGRSLRLSCTASGFTFSDYGMHWVRQAPGKGLEWVSIIWYDGSKKYYADSVQGRFTISRDNSKNTLYLQMSSLRAEDTAVYYCARAYGSGSYYTFNYWGQGTLVTVSS
VL: EIVMTQSPATLSVSPGERATLSCRASQSVNSNLAWYQQKPGQAPRLLIYGASTRATGFPARFIGSGSGTDFTLTINSLQSEDFAVYYCQQYNHWWTFGQGTKVEIK
B18: CL-513691 (antibody, V domains shown)
VH: QVQLVESGGDVVQTGRSLRLSCAASGFTFSNYGMHWVRQAPDKGLEWVAIIWYDGSNKFYADSVKGRFTISRDNSKNTLYLHIHSLRAEDTAVYYCARDDRGDSAGPYFVYWGQGTLVTVSS
VL: EIVMTQSPATLSVSPGERATLSCRASQSVSDNLAWYQQRPGQAPRLLIYGASIRATGIPARFGGSGSGTEFTLTISILQSADFAVYYCQQHDSWPWTFGQGTKVEIK
B19: CL-513808 (antibody, V domains shown)
VH: QVQLVESGGGVVQPGRSLRLSCAASGFTFSNYGMHWVRQAPGKGLEWVAIIWYDGSNKFYADSVKGRFTISRDNSKNTLYLQMNSLRAEDTAVYYCARDDRGHSYGPYFDFWGQGTLVTVSS
VL: EIVMTQSPATLSVSPGERATLSCRASQSVSSNLAWYQQKPGQAPRLLIYGASIRATGIPARFSGSGSGTEFTLTISILQSEDFAVYYCQQCNNWPWTFGQGTKVEIK
B20: CL-513701 (antibody, V domains shown)
VH: QVQLVESGGGVVQTGRSLRLSCTASGFIFSNYGMYWVRQAPGKGLEWVALIWYDGSNKYYVDSVKGRFTISRDNSKNTLYLQMNSLRAEDTAVYYCARAGKYSGSGSYLDSWGQGTLVTVSS
VL: DIQMTQSPSSVSASVGDRVTITCRASQGISSWLAWYQQKPGKAPKLLIYTASSLQSGVPSRFSGSGSGTDFTLTISSLQPDDFATYFCQQYSRYWTFGQGTKVEIK
B21: CL-513041 (antibody, V domains shown)
VH: QEHLVESGGGVVQPGRSLRLSCAASGFTFSNSGMHWVRQAPGKGLEWVAVIWYDGSNKFYADSVRGRFTISRDNSNNTLYLQMNSLRAEDTALYYCARDRLFSGSWNWFDPWGQGTLVTVSS
VL: EIVLTQSPATLSLSPGERATLSCRASQSVSTYLAWYQQKPGQAPRLLIYDASNRATGIPARFSGSGSGTDFTLTISSLEPEDFAVYYCQQRSNWFTFGGGTKVEIK
B22: CL-512296 (antibody, V domains shown)
VH: QVQLVESGGGVVQPGRSLRLSCAASGFTFSNYGMHWVRQAPGKGLEWVAVIWYDGSKKFYADSVMGRFTISRDNSKNTLVLQMNSLGAEDTAVYYCARDRGYSGYVFDYWGQGTLVTVSS
VL: QSALTQPASVSGSPGQSIAISCTGTSSDVGGYNFVSWYRHHPGKAPKLMIYDVSNRPSGVSNRFSGSKSGNTASLTISGLQAEDEADYYCCSYAGSCSVFGGGTKLTVL

Target: recombinant full-length PfCSP (Plasmodium falciparum circumsporozoite protein, strain NF54) (Plasmodium falciparum NF54, UniProt P19597)
Sequence (P19597 20-375): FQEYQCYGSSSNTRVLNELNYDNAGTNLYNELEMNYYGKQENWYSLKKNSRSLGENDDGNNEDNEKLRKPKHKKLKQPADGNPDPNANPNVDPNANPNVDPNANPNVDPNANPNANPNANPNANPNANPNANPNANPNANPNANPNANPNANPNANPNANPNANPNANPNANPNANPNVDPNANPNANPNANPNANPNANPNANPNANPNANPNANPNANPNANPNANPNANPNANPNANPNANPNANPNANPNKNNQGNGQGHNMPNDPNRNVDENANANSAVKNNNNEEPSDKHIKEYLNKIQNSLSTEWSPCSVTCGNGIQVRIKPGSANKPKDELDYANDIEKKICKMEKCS

Binder	binding result
B1	binds
B2	binds
B3	binds
B4	binds
B5	binds
B6	binds
B7	binds
B8	binds
B9	binds
B10	binds
B11	binds
B12	binds
B13	binds
B14	binds
B15	binds
B16	binds
B17	binds
B18	binds
B19	binds
B20	binds
B21	binds
B22	binds
